This passage reports AUC value, titer and absorbance results from patent publication EP4703377A1.

Experiment [1] addresses Recombinant HA antigen A/Anhui/1/2013 (H7N9) (influenza A virus A/Anhui/1/2013 (H7N9)). Nature of the experiment: ELISA on plate-coated recombinant HA; AUC of the absorbance (490 nm) curve. (ELISA stands for enzyme-linked immunosorbent assay.)
Experiment [2] deals with Recombinant HA antigen A/Narita/1/2009 (H1N1pdm09) (influenza A virus A/Narita/1/2009 (H1N1pdm09)). The description is as above.
The target of experiment [3] is Recombinant HA antigen H1, A/South Carolina/1/1918 (H1N1) (influenza A virus A/South Carolina/1/1918 (H1N1)) (UniProt Q9WFX3). The description is as above.
The target of experiment [4] is Recombinant HA antigen H10, A/mallard/Interior Alaska/10BM01929R0/2010 (H10N7) (influenza A virus A/mallard/Interior Alaska/10BM01929R0/2010 (H10N7)). Described as above.
In experiment [5] the target is Recombinant HA antigen H11, A/northern shoveler/Netherlands/18/1999 (H11N9) (influenza A virus A/northern shoveler/Netherlands/18/1999 (H11N9)). The experiment is described as above.
Experiment [6] addresses Recombinant HA antigen H12, A/mallard/Interior Alaska/7MP0167/2007 (H12N5) (influenza A virus A/mallard/Interior Alaska/7MP0167/2007 (H12N5)). Described as above.
Experiment [7] deals with Recombinant HA antigen H13, A/black-headed gull/Sweden/1/1999 (H13N6) (influenza A virus A/black-headed gull/Sweden/1/1999 (H13N6)). The description is as above.
Experiment [8] has as its target Recombinant HA antigen H14, A/mallard/Astrakhan/263/1982 (H14N5) (influenza A virus A/mallard/Astrakhan/263/1982 (H14N5)). The experiment is described as above.
The target of experiment [9] is Recombinant HA antigen H15, A/shearwater/Australia/2576/1979 (H15N9) (influenza A virus A/shearwater/Australia/2576/1979 (H15N9)). The description is as above.
Experiment [10] has as its target Recombinant HA antigen H16, A/black-headed gull/Sweden/5/99 (H16N3) (influenza A virus A/black-headed gull/Sweden/5/99 (H16N3)). The experiment is described as above.
Experiment [11] concerns the target Recombinant HA antigen H17, A/little yellow-shouldered bat/Guatemala/060/2010 (H17N10) (influenza A virus A/little yellow-shouldered bat/Guatemala/060/2010 (H17N10)). The description is as above.
For experiment [12], the target named is Recombinant HA antigen H18, A/flat-faced bat/Peru/033/2010 (H18N11) (influenza A virus A/flat-faced bat/Peru/033/2010 (H18N11)). Described as above.
For experiment [13], the target named is Recombinant HA antigen H2, A/Japan/305/57 (H2N2) (influenza A virus A/Japan/305/57 (H2N2)) (UniProt P03451). The experiment is described as above.
The target of experiment [14] is Recombinant HA antigen H3, A/Hong Kong/1/68 (H3N2) (influenza A virus A/Hong Kong/1/68 (H3N2)) (UniProt Q91MA7). The experiment is described as above.
The target in experiment [15] is Recombinant HA antigen H4, A/duck/Czechoslovakia/1956 (H4N6) (influenza A virus A/duck/Czechoslovakia/1956 (H4N6)) (UniProt P19696). The description is as above.
In experiment [16] the target is Recombinant HA antigen H5, A/Laos/JP127/2004 (H5N1) (influenza A virus A/Laos/JP127/2004 (H5N1)). The experiment is described as above.
In experiment [17] the target is Recombinant HA antigen H6, A/mallard/Sweden/81/2002 (H6N1) (influenza A virus A/mallard/Sweden/81/2002 (H6N1)). Described as above.
The target in experiment [18] is Recombinant HA antigen H8, A/mallard/Sweden/24/2002 (H8N4) (influenza A virus A/mallard/Sweden/24/2002 (H8N4)). The experiment is described as above.
Experiment [19] concerns the target Recombinant HA antigen H9, A/guinea fowl/Hong Kong/WF10/99 (H9N2) (influenza A virus A/guinea fowl/Hong Kong/WF10/99 (H9N2)). The description is as above.
Experiment [20] deals with H3 LAH.
Experiment [21] deals with H3 LAH. The experiment is described as follows: ELISA on H3 LAH at 15.625 ng/mL clone 5.

B1: Clone 6 (antibody, V domains shown)
VH: QVQLEQSGAEVKKPGSSVKVSCKASGPMFSRSAFSWVRQAPGQGLEWMGRIIPTVDLKNYAQKFQGRVTFTADKSTATSYMELRSLKSEDTAVYYCARMGSGSSYYGMDVWGLGTTVTVSS
VL: DIVMTQSPLSLPVIPGEPASISCRSSQSLLQSNGNNYLDWYLQKPGQSPQLLIYLGSNRASGVPDRFSGSGSGTDFTLTISRVEAEDVGVYYCLQARQSSVLTFGGGTKLEIK
Take B1: the AUC value in [1] was determined as 3320; in experiment [2], 2480; in experiment [3], 3360; in experiment [4], 3330; in experiment [5] it was 757; in experiment [6], 98.5. Moreover, the AUC value was 117 in experiment [7]; 3360 in experiment [8]; 3360 in [9]; 290 in [10]; 3370 in experiment [11]; 3240 in experiment [12]. For the same molecule, the AUC value in experiment [13] stood at 3310; in experiment [14], 3300; in [15] it was 3310; in experiment [16], 3240; in experiment [17], 2800; in [18], 474. Further, the AUC value in [19] was 632.

B2: Clone 7 (antibody, V domains shown)
VH: QVQLQESGPGLVKPSETLSLTCSVSGGPLTSSTYFWGWIRQPPGKGLEWLGSINFRGTTDNAPSLKSRVTLSIDTSTHQFSLRLSSVTAKDTAVYYCARHTQRLTVFTVVHGFDLWGQGTVVSVSS
VL: QSALTQPASVSGSPGQSITISCTGATGDIGVSDFVSWYQQHPGKAPKLIIFDVTNRPSGVSNRFSGSKSVNTASLTISGLQAEDEADYYCCLYSTRSRDWEFGGGTKLTVL
As to B2, the AUC value in experiment [1] stood at 3260; in experiment [2] it was 3350; in experiment [3] it was 3320; in experiment [4], 3220; in experiment [5] it was 300; in [6] it was 3340. For the same molecule, the AUC value in experiment [7] worked out at 1560; in [8], 3320; in experiment [9], 3270; in experiment [10] it was 3200; in experiment [11], 3350; in experiment [12], 3160. The AUC value in [13] amounted to 3300; in [15], 3250; in [16] it was 3290; in experiment [17], 3220; in experiment [18] it was 3320; in [19] it was 3240.

B3: Clone 5 (antibody, V domains shown)
VH: QVQLQESGPGLVKPSETLSLTCTVSGVSMNSNHWSWIRQAPGKELEWIGYIYYTGKTFYNPSLQSRVTVSLDTSKNQFYLKLTSVTAADTAVYYCARRAMASVQRGILRVFDLWGQGKMVTVSS
VL: DIQMTQSPSTLSASVGDRVTITCRASQIIDKWLAWYQHKPGKAPKLLIYEASNLETGVPSRFSGSGSGTEFTLTISSLQPDDFATYFCQQYKSYLPYTFGQGTKLEIK
Take B3: in the experiment with H3 LAH [20], the titer was 0.92 AU/mL. The same molecule yielded an absorbance in the experiment with H3 LAH [21] of 0.877 absorbance.
